Paper PMC12529666, “Dysregulation of AGO2-miRNA dynamics underlies the AGO2-associated Lessel–Kreienkamp syndrome”

Key:
AGO2 A367P [1] = target: T1, AGO2 A367P (Homo sapiens, UniProt Q9UKV8 1-859, A367P;S387D;S824A;S828D;S831D;S834A); experiment: pull-down; recovery similar to WT; 30 mM Tris pH 8.0, 100 mM KOAc, 2 mM MgOAc, 0.5 mM TCEP, 0.005% NP-40, 0.01 mg/ml yeast tRNA, room temperature, 2 h (equilibrium); association buffer listed without Mg; conditions: protein: recombinant; tags: His6 (N-terminal, pFastBac HTA); label: biotin on capture oligo; guide paired in part with capture oligo
AGO2 L192P [2] = target: T2, AGO2 L192P (Homo sapiens, UniProt Q9UKV8 1-859, L192P;S387D;S824A;S828D;S831D;S834A); experiment: as above; conditions: protein: recombinant; tags: His6 (N-terminal, pFastBac HTA); label: biotin on capture oligo; guide paired in part with capture oligo
AGO2 F182del [3] = target: T3, AGO2 F182del (Homo sapiens, UniProt Q9UKV8 1-859, S387D;S824A;S828D;S831D;S834A;del182-182); experiment: as above; conditions: protein: recombinant; tags: His6 (N-terminal, pFastBac HTA); label: biotin on capture oligo; guide paired in part with capture oligo
AGO2 T357M [4] = target: T4, AGO2 T357M (Homo sapiens, UniProt Q9UKV8 1-859, T357M;S387D;S824A;S828D;S831D;S834A); experiment: as above; conditions: protein: recombinant; tags: His6 (N-terminal, pFastBac HTA); label: biotin on capture oligo; guide paired in part with capture oligo
AGO2 T357M [5] = target: T4, AGO2 T357M; experiment: filter binding; 2 mM Mg2+; 30 mM Tris pH 8.0, 100 mM KOAc, 2 mM MgOAc, 0.5 mM TCEP, 0.005% NP-40, 0.01 mg/ml yeast tRNA, room temperature, 2 h (equilibrium); association buffer listed without Mg; conditions: protein: recombinant; tags: His6 (N-terminal, pFastBac HTA); label: 32P 5' on target; guide g2-g8 paired with target ACACUCC; remainder unpaired
AGO2 A367P [6] = target: T1, AGO2 A367P; experiment: filter binding (association); AGO2-miR-122 0.25-1.5 nM; 30 mM Tris pH 8.0, 100 mM KOAc, 2 mM MgOAc, 0.5 mM TCEP, 0.005% NP-40, 0.01 mg/ml yeast tRNA, room temperature, 2 h (equilibrium); association buffer listed without Mg; conditions: protein: recombinant; tags: His6 (N-terminal, pFastBac HTA); label: 32P 5' on target; guide g2-g8 paired with target ACACUCC; remainder unpaired
AGO2 L192P [7] = target: T2, AGO2 L192P; experiment: as above; conditions: protein: recombinant; tags: His6 (N-terminal, pFastBac HTA); label: 32P 5' on target; guide g2-g8 paired with target ACACUCC; remainder unpaired
AGO2 A367P [8] = target: T1, AGO2 A367P; experiment: filter binding (dissociation); 300 nM unlabeled target chase; 30 mM Tris pH 8.0, 100 mM KOAc, 2 mM MgOAc, 0.5 mM TCEP, 0.005% NP-40, 0.01 mg/ml yeast tRNA, room temperature, 2 h (equilibrium); association buffer listed without Mg; conditions: protein: recombinant; tags: His6 (N-terminal, pFastBac HTA); label: 32P 5' on target; guide g2-g8 paired with target ACACUCC; remainder unpaired
AGO2 T357M [9] = target: T4, AGO2 T357M; experiment: as above; conditions: protein: recombinant; tags: His6 (N-terminal, pFastBac HTA); label: 32P 5' on target; guide g2-g8 paired with target ACACUCC; remainder unpaired
AGO2 L192P [10] = target: T2, AGO2 L192P; experiment: filter binding (dissociation); 300 nM unlabeled target chase; slowest release; 30 mM Tris pH 8.0, 100 mM KOAc, 2 mM MgOAc, 0.5 mM TCEP, 0.005% NP-40, 0.01 mg/ml yeast tRNA, room temperature, 2 h (equilibrium); association buffer listed without Mg; conditions: protein: recombinant; tags: His6 (N-terminal, pFastBac HTA); label: 32P 5' on target; guide g2-g8 paired with target ACACUCC; remainder unpaired
AGO2 A367P [11] = target: T1, AGO2 A367P; experiment: northern blot of purified complex; ~1:1 AGO2:miR-122; 30 mM Tris pH 8.0, 100 mM KOAc, 2 mM MgOAc, 0.5 mM TCEP, 0.005% NP-40, 0.01 mg/ml yeast tRNA, room temperature, 2 h (equilibrium); association buffer listed without Mg; conditions: protein: recombinant; tags: His6 (N-terminal, pFastBac HTA)
AGO2 L192P [12] = target: T2, AGO2 L192P; experiment: as above; conditions: protein: recombinant; tags: His6 (N-terminal, pFastBac HTA)
AGO2 F182del [13] = target: T3, AGO2 F182del; experiment: as above; conditions: protein: recombinant; tags: His6 (N-terminal, pFastBac HTA)
AGO2 T357M [14] = target: T4, AGO2 T357M; experiment: as above; conditions: protein: recombinant; tags: His6 (N-terminal, pFastBac HTA)

T2 sequence (Q9UKV8 whole entry L192P/S387D/S824A/S828D/S831D/S834A): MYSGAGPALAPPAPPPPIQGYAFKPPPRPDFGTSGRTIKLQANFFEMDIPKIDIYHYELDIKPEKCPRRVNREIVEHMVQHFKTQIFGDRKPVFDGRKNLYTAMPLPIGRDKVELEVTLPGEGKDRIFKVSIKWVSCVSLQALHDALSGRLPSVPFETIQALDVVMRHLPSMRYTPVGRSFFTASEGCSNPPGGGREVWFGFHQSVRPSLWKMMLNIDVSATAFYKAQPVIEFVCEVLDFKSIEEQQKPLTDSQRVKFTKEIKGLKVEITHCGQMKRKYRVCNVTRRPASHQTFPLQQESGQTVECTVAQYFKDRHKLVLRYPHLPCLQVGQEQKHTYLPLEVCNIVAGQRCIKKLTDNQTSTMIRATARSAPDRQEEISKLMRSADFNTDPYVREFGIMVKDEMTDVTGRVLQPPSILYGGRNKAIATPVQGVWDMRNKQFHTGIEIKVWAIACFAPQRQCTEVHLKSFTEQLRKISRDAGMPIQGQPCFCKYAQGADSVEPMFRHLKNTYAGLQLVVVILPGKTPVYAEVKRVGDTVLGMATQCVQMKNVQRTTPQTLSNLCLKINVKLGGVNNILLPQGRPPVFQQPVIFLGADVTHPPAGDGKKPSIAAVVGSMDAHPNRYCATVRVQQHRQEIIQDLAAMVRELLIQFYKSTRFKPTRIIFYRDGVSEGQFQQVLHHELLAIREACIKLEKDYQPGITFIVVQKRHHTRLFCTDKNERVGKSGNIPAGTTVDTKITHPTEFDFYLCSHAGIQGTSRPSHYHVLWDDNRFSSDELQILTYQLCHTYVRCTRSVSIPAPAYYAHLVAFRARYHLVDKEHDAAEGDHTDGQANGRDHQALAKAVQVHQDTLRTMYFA
T1 sequence (Q9UKV8 whole entry A367P/S387D/S824A/S828D/S831D/S834A): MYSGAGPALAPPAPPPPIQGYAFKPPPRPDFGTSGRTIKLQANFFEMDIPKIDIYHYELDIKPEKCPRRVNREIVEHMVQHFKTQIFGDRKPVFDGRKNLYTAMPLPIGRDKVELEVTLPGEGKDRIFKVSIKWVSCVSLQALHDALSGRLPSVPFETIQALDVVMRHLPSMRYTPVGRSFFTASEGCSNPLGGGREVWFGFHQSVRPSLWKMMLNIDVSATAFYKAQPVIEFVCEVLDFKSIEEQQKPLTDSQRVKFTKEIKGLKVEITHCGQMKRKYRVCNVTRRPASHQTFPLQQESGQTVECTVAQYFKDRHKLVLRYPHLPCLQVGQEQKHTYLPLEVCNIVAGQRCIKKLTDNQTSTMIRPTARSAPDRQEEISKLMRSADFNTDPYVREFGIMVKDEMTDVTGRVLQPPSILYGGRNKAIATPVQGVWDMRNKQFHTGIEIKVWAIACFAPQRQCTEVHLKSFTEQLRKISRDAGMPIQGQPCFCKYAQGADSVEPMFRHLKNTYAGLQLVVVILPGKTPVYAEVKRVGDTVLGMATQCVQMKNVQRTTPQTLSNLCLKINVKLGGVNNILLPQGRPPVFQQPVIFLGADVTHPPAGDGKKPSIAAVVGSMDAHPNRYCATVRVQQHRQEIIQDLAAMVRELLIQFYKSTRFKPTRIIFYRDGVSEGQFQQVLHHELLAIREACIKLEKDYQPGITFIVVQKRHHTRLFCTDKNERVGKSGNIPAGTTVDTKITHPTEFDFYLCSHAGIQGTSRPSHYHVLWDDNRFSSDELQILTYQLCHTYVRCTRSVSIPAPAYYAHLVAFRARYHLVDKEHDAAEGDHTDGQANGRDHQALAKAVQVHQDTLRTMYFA
T4 sequence (Q9UKV8 whole entry T357M/S387D/S824A/S828D/S831D/S834A): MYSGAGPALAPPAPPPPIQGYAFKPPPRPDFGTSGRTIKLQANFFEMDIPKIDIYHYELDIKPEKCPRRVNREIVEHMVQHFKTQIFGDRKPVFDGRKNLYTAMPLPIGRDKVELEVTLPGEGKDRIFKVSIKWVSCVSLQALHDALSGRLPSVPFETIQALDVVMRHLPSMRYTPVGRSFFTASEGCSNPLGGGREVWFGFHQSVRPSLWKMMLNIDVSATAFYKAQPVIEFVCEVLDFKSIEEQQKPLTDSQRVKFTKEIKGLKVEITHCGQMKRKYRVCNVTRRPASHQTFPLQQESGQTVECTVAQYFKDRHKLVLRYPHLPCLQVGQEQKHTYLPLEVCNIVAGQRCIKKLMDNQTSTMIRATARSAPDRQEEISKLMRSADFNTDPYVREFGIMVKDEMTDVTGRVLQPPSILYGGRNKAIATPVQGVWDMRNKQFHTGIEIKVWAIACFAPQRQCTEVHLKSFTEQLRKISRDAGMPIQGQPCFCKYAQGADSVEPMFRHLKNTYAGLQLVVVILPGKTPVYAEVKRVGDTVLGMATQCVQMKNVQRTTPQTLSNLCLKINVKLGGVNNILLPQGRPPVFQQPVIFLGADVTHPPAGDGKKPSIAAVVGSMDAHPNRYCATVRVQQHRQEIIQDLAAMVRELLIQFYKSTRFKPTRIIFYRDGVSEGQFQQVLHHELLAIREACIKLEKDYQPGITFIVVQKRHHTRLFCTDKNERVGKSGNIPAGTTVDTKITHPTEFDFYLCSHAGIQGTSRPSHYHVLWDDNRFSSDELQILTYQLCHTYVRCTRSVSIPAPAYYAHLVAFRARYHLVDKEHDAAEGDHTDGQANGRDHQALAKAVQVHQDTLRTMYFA
T3 sequence (Q9UKV8 other isoform, or with tags, fused parts or gaps S387D;S824A;S828D;S831D;S834A;del182-182): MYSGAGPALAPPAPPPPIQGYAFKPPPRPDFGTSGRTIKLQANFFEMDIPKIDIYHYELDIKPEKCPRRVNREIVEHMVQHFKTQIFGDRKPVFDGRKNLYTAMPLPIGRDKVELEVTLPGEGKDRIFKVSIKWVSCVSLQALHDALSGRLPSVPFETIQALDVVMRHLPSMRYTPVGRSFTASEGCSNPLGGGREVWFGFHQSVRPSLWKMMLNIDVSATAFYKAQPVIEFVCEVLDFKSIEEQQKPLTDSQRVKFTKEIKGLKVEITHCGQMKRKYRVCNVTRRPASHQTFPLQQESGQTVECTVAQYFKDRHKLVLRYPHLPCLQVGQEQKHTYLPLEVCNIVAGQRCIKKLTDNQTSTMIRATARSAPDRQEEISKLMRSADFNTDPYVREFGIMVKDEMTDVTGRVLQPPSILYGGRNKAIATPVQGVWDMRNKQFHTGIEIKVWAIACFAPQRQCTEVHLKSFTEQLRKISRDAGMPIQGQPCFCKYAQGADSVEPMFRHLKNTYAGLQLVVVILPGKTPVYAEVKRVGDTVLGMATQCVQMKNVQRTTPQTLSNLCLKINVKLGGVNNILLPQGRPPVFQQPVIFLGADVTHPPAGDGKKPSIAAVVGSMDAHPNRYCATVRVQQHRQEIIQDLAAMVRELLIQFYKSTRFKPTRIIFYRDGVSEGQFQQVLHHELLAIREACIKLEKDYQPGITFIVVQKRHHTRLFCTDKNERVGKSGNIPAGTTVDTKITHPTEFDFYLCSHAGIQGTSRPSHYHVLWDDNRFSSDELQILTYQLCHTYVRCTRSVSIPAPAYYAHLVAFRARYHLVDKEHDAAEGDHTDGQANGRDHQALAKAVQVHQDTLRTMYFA

B1: miR-122 guide / biotinylated capture oligo (DNA:RNA)
RNA: UGGAGUGUGACAAUGGUGUUUG
DNA: TCTCGTCTAACCATGCCAACACTCCAACTCT
modifications: 5' phosphate on guide
- binding result (AGO2 A367P [1]): binds
- binding result (AGO2 L192P [2]): binds
- binding result (AGO2 F182del [3]): binds
- binding result (AGO2 T357M [4]): binds

B2: miR-122 guide / seed-matched target RNA (dsRNA)
RNA 1: UGGAGUGUGACAAUGGUGUUUG
RNA 2: AAAAAAAAAAAAACACUCCUAA
modifications: 5' phosphate on guide
- binding signal (AGO2 T357M [5]): 1.8 fold lower KD than WT (not significant)
- binding signal (AGO2 A367P [6]): > 5 fold slower association than WT (at least)
- binding signal (AGO2 L192P [7]): > 5 fold slower association than WT (at least)
- binding signal (AGO2 A367P [8]): ~20 fold slower koff (slow phase) vs near-WT fast phase
- binding signal (AGO2 T357M [9]): ~20 fold slower koff (slow phase) vs near-WT fast phase
- binding signal (AGO2 L192P [10]): ~20 fold slower koff (slow phase) vs near-WT fast phase

Binder: UGGAGUGUGACAAUGGUGUUUG (ssRNA, 5' phosphate) [miR-122 guide RNA]
- binding result (AGO2 A367P [11]): binds
- binding result (AGO2 L192P [12]): binds
- binding result (AGO2 F182del [13]): binds
- binding result (AGO2 T357M [14]): binds
